Experimental data: patent US20160108093A1 (WISCONSIN ALUMNI RESEARCH FOUNDATION, published 2016)
Where no end group is shown, it is not given here. [ ]: non-standard residue; d: D form.

Assays:
[1] = target: the molecule itself; assay: self-association: PICUP cross-linking of the peptide alone at 36 µM, gel, silver staining
Experimental: Peptides were also cross-linked by PICUP and analyzed for self-association. […] Cross-linked samples were then heated at 95° C. for 5 min and separated on a 10-20% Tris-Tricine gradient gel. Peptides were visualized by silver staining (SilverStain Kit, Pierce, Rockford, Ill.).
Peptide self-assembly was probed by photo-induced crosslinking (PICUP) followed by gel electrophoresis.

Aβ (1-42) = Aβ (1-42) (UniProt P05067 672-713); assay: cell-based or functional assay

Binder	binding result [1]	Aβ toxicity, MTS assay with primary mouse neuronal cultures (10 µM Aβ) (Aβ (1-42))
Ac-PRRYTIAALLSPYSWS-NH2 (also called 16-mer linear peptide) [G16]	binds	
cyclo(SKV[dP]PTIAALLSPYSYSQ) (SMILES CC[C@H](C)[C@@H]1NC(=O)[C@H]([C@@H](C)O)NC(=O)[C@@H]2CCCN2C(=O)[C@H]2CCCN2C(=O)[C@H](C(C)C)NC(=O)[C@H](CCCCN)NC(=O)[C@H](CO)NC(=O)[C@H](CCC(N)=O)NC(=O)[C@H](CO)NC(=O)[C@H](Cc2ccc(O)cc2)NC(=O)[C@H](CO)NC(=O)[C@H](Cc2ccc(O)cc2)NC(=O)[C@@H]2CCCN2C(=O)[C@H](CO)NC(=O)[C@H](CC(C)C)NC(=O)[C@H](CC(C)C)NC(=O)[C@H](C)NC(=O)[C@H](C)NC1=O) [CG2]		10 µM
cyclo(SKVVT[dP]PRYTIAALLSPYSYSQ) (SMILES CC[C@H](C)[C@@H]1NC(=O)[C@H]([C@@H](C)O)NC(=O)[C@H](Cc2ccc(O)cc2)NC(=O)[C@H](CCCNC(=N)N)NC(=O)[C@@H]2CCCN2C(=O)[C@H]2CCCN2C(=O)[C@H]([C@@H](C)O)NC(=O)[C@H](C(C)C)NC(=O)[C@H](C(C)C)NC(=O)[C@H](CCCCN)NC(=O)[C@H](CO)NC(=O)[C@H](CCC(N)=O)NC(=O)[C@H](CO)NC(=O)[C@H](Cc2ccc(O)cc2)NC(=O)[C@H](CO)NC(=O)[C@H](Cc2ccc(O)cc2)NC(=O)[C@@H]2CCCN2C(=O)[C@H](CO)NC(=O)[C@H](CC(C)C)NC(=O)[C@H](CC(C)C)NC(=O)[C@H](C)NC(=O)[C@H](C)NC1=O) [CG3]		10 µM
SKVVT[dP]PRYTIAALLSPYSYSQ [LG3]		10 µM
